Where two headings read alike, the source gives them in different places. No end group written: not given here.
Assays:
[1] = target: human BChE (Homo sapiens, UniProt P06276); experiment: Inhibition of BChE-catalysed ghrelin hydrolysis by BChE-specific inhibitors; format: biochemical; settings: parallel assays, modest concentrations of inhibitor
[2] = rats; cited from earlier work
[3] = Tissue distribution of [^3H]-ghrelin after i.v. bolus in DFP-pretreated mice; settings: as E30
[4] = humans; cited from earlier work

Sequence of human BChE (P06276 29-602): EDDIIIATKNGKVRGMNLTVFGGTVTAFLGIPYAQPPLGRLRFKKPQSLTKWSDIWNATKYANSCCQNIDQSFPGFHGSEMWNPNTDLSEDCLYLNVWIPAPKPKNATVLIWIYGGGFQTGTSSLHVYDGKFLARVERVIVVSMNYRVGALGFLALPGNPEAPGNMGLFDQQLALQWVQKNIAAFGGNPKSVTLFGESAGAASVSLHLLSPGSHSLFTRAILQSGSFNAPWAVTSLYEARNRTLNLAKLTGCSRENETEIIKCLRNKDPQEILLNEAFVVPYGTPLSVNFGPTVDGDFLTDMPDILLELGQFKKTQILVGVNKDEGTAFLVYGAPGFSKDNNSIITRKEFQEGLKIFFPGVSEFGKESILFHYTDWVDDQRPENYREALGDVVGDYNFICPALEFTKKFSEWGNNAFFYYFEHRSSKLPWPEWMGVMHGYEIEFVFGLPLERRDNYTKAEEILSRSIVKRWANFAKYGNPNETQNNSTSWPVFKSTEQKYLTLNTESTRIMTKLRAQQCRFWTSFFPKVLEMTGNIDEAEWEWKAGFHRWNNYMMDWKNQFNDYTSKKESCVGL

Molecule | effect on BChE ghrelin hydrolysis reactions [1] | circulating half-life [2] [min] | time of peak concentration in liver [3] [min] | time of peak concentration in pancreas [3] [min] | time of peak concentration in spleen [3] [min] | circulating half-life [4] [min]
CCN(CC)C(C)CN1c2ccccc2Sc2ccccc21 (stereo not drawn) [ethopropazine] | stopped those reactions completely | – | – | – | – | –
ghrelin (GSS((3H)n‑octanoyl)FLSPEHQRVQQRKESKKPPAKLQPR; also: tritium label on the octanoyl group (tracer form); UniProt Q9UBU3 24-51, looked up) | – | 8 | 6 | 12 | 12 | 8 to 13
